Here are results for six molecules from patent US20260232826A1 (MABLINK BIOSCIENCE, published 2026).

By Kd is commonly meant the constant that tells how readily two partners part at equilibrium. Broadly, the EC50 (read off the curve) is the midpoint of the concentration-response curve. In general, koff refers to the first-order rate constant of dissociation. A word on the kon: it is the second-order rate constant of association.

B1: F-LALA-VA-EXA (antibody, human IgG1, kappa, L234A L235A)
heavy: not shown
light: DIQLTQSPSSLSASVGDRVTITCSVSSSISSNNLHWYQQKPGKAPKPWIYGTSNLASGVPSRFSGSGSGTDYTFTISSLQPEDIATYYCQQWSSYPYMYTFGQGTKVEIKRTVAAPSVFIFPPSDEQLKSGTASVVCLLNNFYPREAKVQWKVDNALQSGNSQESVTEQDSKDSTYSLSSTLTLSKADYEKHKVYACEVTHQGLSSPVTKSFNRGEC
modifications: drug-linker LNK4-S on the interchain cysteine thiol, 1 per light chain (LC-1d); drug-linker LNK4-S (Val-Ala-exatecan with polysarcosine) on interchain cysteine thiols, 3 per heavy chain (HC-3d); DAR …
notes: Antibody-drug conjugate
B2: farletuzumab (antibody, human IgG1, kappa)
heavy: not shown
light: B1 light
notes: Human IgG1, made in CHO K1 cells; also called mAb2; native farletuzumab
B3: F-VA-EXA (antibody, human IgG1, kappa)
heavy chain: not shown
light chain: B1 light
modifications: interchain cysteine thiol conjugated to drug-linker LNK4-S, DAR 8; interchain cysteine thiols conjugated to drug-linker LNK4-S (Val-Ala-exatecan, polysarcosine), DAR 8
B4: farletuzumab-LALA (antibody, human IgG1, kappa, L234A L235A)
heavy: not shown
light: B1 light
notes: also called mAb1; Fc-silent farletuzumab-LALA
B5: mirvetuximab (antibody, human IgG1, kappa, V domains shown)
VH: QVQLVQSGAEVVKPGASVKISCKASGYTFTGYFMNWVKQSPGQSLEWIGRIHPYDGDTFYNQKFQGKATLTVDKSSNTAHMELLSLTSEDFAVYYCTRYDGSRAMDYWGQGTTVTVSS
VL: DIVLTQSPLSLAVSLGQPAIISCKASQSVSFAGTSLMHWYHQKPGQQPRLLIYRASNLEAGVPDRFSGSGSKTDFTLTISPVEAEDAATYYCQQSREYPYTFGGGTKLEIKR
notes: also called native mirvetuximab
B6: M-SORAV (antibody, human IgG1, kappa, V domains shown)
VH: B5 VH
VL: B5 VL
modifications: sulfo-SPDB-DM4 stochastically conjugated to lysines; average DAR 3.35 for the whole antibody
notes: Antibody-drug conjugate; also called ADC derivative of mirvetuximab; mirvetuximab soravtansine comparator

T1 sequence (P35846 25-232 limits assumed, stated change not applied): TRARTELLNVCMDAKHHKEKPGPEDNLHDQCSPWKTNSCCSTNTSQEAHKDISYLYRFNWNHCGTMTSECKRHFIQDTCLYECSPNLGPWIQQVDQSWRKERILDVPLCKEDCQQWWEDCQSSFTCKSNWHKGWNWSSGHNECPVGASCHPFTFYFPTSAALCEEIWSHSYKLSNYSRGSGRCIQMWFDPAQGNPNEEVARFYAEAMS
T4 sequence (A0A2K5U044 entry or part of it C08H C08H): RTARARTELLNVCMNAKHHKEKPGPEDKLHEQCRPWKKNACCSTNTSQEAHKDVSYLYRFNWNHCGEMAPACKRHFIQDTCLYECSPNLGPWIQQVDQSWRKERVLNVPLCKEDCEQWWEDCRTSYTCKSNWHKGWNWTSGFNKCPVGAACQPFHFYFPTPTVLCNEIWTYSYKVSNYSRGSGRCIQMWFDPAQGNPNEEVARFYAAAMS

The first assay addresses T1, recombinant mouse FRα protein (Sino Biological cat #50573-M08H) (mouse, UniProt P35846 25-232).
T1 construct: Bought; also called mouse recombinant FRα protein
Nature of the assay: ELISA: plate coated with recombinant mouse FRα (2 µg/mL), threefold dilution series of F-LALA-VA-EXA, goat anti-human IgG-HRP, A450; x axis printed as [Recombinant FRa] (M) with log10 values. As for the experimental part:
(§1) Sandwich ELISA assays were performed using 96-well high-binding ELISA plates (Corning Inc., New York, NY, USA, Cat #3590). Plates were coated using 100 μL/well of recombinant human FRα protein (Sino Biological cat #11241-H08H); recombinant cynomolgus FRα protein (Sino Biological cat #90950-C08H); recombinant rat FRα protein (Sino Biological cat #81073-R08H) or recombinant mouse FRα protein (Sino Biological cat #50573-M08H) in PBS (pH 7.4) at 2 μg/mL and incubated overnight at 4° C. After 2 washes with PBS-T (PBS+0.05% Tween-20), the plates were blocked with 200 μL/well of incubation buffer (PBS-T+0.1% BSA) for 1 h at room temperature. The plates were washed 4 times with PBS-T, and 100 μL of a threefold dilution series of tested compound (antibody or antibody-drug conjugate) was added. Then, the plates were incubated for 2 h at room temperature in the dark. After 5 washes with PBS-T, plates were incubated 1 h at room temperature with 100 μL/well of a goat anti-human IgG (H+L) HRP conjugated antibody (Jackson Immunoresearch cat #109-035-088), previously diluted 1:250000 in incubation buffer. After 5 washes with PBS-T, TMB substrate solution (Thermo-Fisher cat #N301) was added. […] Sigmoidal fittings were performed using GraphPad Prism 9 software.
A general note: An ELISA detects its analyte on a solid surface through an enzyme-linked reagent.
With B1, the binding result is recorded as “no binding”.

For the next assay, the target named is T2, recombinant human FRα protein (Sino Biological cat #11241-H08H) (human, UniProt P15328 25-233).
T2 construct: Bought recombinant protein; also called human folate receptor alpha; FOLR1
T2 sequence (P15328 25-233 limits assumed): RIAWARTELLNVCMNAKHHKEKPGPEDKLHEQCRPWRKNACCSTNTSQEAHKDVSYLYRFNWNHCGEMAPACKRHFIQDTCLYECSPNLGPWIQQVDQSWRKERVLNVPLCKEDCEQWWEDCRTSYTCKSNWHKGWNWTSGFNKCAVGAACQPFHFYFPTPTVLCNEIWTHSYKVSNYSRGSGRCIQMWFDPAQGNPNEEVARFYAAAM
Nature of the assay: SPR, Biacore T200, 25 °C: antibody or ADC captured with Human Antibody Capture kit on CM5 chip, recombinant human FRα as analyte (0.5-8 nM), single cycle kinetics, 1:1 model, KD calculated as kd/ka. The method, then:
(§2) Surface plasmon resonance (SPR) experiments are performed on a Biacore T200 apparatus, at 25° C. Tested antibody or ADC are captured at low density (300-500 RU) on a CM5 series S sensorchip, beforehand functionalized with a Human Antibody Capture kit (Cytiva cat #BR100839). A functionalized surface/flow cell treated similarly but omitting ligand is used as reference. […] The dissociation phase is measured by injection of running buffer for 900 sec. Between duplicates, surfaces/flow cells are regenerated with 3M MgCl₂ to remove both analyte and ligand, and fresh ligand capture are done using identical conditions. The data analysis is performed using the Biacore Evaluation software after subtraction of reference surface and analyte zero-concentration signals. Data are processed and fit to a 1:1 binding model to determine the binding kinetic rate constants, kₐ (on-rate) and kd (off-rate), and the KD (equilibrium dissociation constant, also referred to as “affinity”). Mean values and standard deviations over replicates are reported.
(§3) Surface plasmon resonance (SPR) experiments were performed on a Biacore T200 apparatus, at 25° C. Tested antibody or ADC were captured at low density (300-500 RU) on a CM5 series S sensorchip, beforehand functionalized with a Human Antibody Capture kit (Cytiva cat #BR100839). A functionalized surface/flow cell treated similarly but omitting ligand was used as reference. […] The dissociation phase was measured by injection of running buffer for 900 sec. Between duplicates, surfaces/flow cells were regenerated with 3M MgCl₂ to remove both analyte and ligand, and fresh ligand capture were done using identical conditions.
In the case of B2, the Kd is 25.1 nM.
On to B3, for which the Kd is 30.9 nM.
Consider B4, for which the Kd was 25.5 nM.
As to B1, the Kd was 27.8 nM.
On the same count and under the same terms, the result for B5 reads 0.211 nM; that for B6, 0.26 nM.

The target in another assay is T3, recombinant rat FRα protein (Sino Biological cat #81073-R08H) (rat, UniProt G3V8M6 25-232).
T3 construct: Bought; also called rat recombinant FRα protein
T3 sequence (G3V8M6 entry or part of it R08H R08H limits assumed): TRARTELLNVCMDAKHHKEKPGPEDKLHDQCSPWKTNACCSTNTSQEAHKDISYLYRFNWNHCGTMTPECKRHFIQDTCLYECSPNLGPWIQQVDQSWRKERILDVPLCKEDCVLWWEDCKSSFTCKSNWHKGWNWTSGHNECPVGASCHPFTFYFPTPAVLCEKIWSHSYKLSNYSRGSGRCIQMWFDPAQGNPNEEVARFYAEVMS
Nature of the assay: ELISA: plate coated with recombinant rat FRα (2 µg/mL), threefold dilution series of F-LALA-VA-EXA, goat anti-human IgG-HRP, A450; x axis printed as [Recombinant FRa] (M) with log10 values. The method, then:
as §1
With B1, the binding result is “no binding”.

For a further assay, the target named is T2, recombinant human FRα protein (Sino …). Nature of the assay: SPR Biacore T200, antibody captured, recombinant human FRα as analyte, 1:1 model; the filing attributes it to an increased kd with a similar ka. As for the experimental part: as §2
Surface plasmon resonance (SPR) experiments were performed on a Biacore T200 apparatus, at 25° C. Tested antibody or ADC were captured at low density (300-500 RU) on a CM5 series S sensorchip, beforehand functionalized with a Human Antibody Capture kit (Cytiva cat #BR100839). […] The dissociation phase was measured by injection of running buffer for 900 sec. […]
On the technique in general: SPR reads the build-up and loss of mass on a sensor chip optically.
Turning to B2, the “fold change of KD against mirvetuximab and mirvetuximab-based constructs” value is approximately 10 fold.
In the case of B4, the “fold change of KD against mirvetuximab and mirvetuximab-based constructs” value is approximately 10 fold.

Another assay has as its target T4, recombinant cynomolgus FRα protein (Sino Biological cat #90950-C08H) (cynomolgus, UniProt A0A2K5U044 25-234).
T4 construct: Bought; also called cynomolgus recombinant FRα protein
Nature of the assay: ELISA: plate coated with recombinant cynomolgus FRα (2 µg/mL), threefold dilution series of F-LALA-VA-EXA, goat anti-human IgG-HRP, A450; x axis printed as [Recombinant FRa] (M) with log10 values. As for the experimental part: as §1
As for B1, the “EC50 (read off the curve)” value is approximately 0.1 nM.

For another assay, the target named is T2, recombinant human FRα protein (Sino …). Nature of the assay: ELISA: plate coated with recombinant human FRα (2 µg/mL), threefold dilution series of F-LALA-VA-EXA, goat anti-human IgG-HRP, A450; x axis printed as [Recombinant FRa] (M) with log10 values. The method, then:
(§4) Sandwich ELISA assays are performed using 96-well high-binding ELISA plates (Corning Inc., New York, NY, USA, Cat #3590). Plates are coated using 100 µL/well of recombinant human FRα protein (Sino Biological cat #11241-H08H) in PBS (pH 7.4) at 2 μg/mL and incubated overnight at 4° C. After 2 washes with PBS-T (PBS+0.05% Tween-20), the plates are blocked with 200 μL/well of incubation buffer (PBS-T+0.1% BSA) for 1 h at room temperature. The plates are washed 4 times with PBS-T, and 100 μL of a threefold dilution series of tested compound (antibody or antibody-drug conjugate) is added. Then, the plates are incubated for 2 h at room temperature in the dark. After 5 washes with PBS-T, plates are incubated 1 h at room temperature with 100 μL/well of a goat anti-human IgG (H+L) HRP conjugated antibody (Jackson Immunoresearch cat #109-035-088), previously diluted 1:250000 in incubation buffer. After 5 washes with PBS-T, TMB substrate solution (Thermo-Fisher cat #N301) is added. […] Sigmoidal fittings were performed using GraphPad Prism 9 software.
Sandwich ELISA assays were performed using 96-well high-binding ELISA plates (Corning Inc., New York, NY, USA, Cat #3590). […]
In the case of B1, the “EC50 (read off the curve)” value is approximately 0.1 nM.

A further assay has the same target. Nature of the assay: SPR, Biacore T200, 25 °C: antibody or ADC captured with Human Antibody Capture kit on CM5 chip, recombinant human FRα as analyte (0.5-8 nM), single cycle kinetics, 1:1 model, mean over replicates. The method, then: as §2, §3
As for B2, the koff came to 0.0361 s⁻¹ and the kon worked out at 1.9e+06 M⁻¹ s⁻¹.
For the molecule B3, the koff came out at 0.0306 s⁻¹ and the kon is 1e+06 M⁻¹ s⁻¹.
The matching figures for B4: 0.0321 s⁻¹ and 1.34e+06 M⁻¹ s⁻¹.
For B1, the off-rate constant (koff) stood at 0.0368 s⁻¹ and the kon came to 1.33e+06 M⁻¹ s⁻¹.
The matching figures for B5: 0.000244 s⁻¹ and 1.15e+06 M⁻¹ s⁻¹.
The matching figures for B6: 0.000327 s⁻¹ and 1.26e+06 M⁻¹ s⁻¹.

For the next assay the target is unchanged. Nature of the assay: ELISA: plate coated with recombinant human FRα (2 µg/mL), threefold dilution series of the antibody or ADC, goat anti-human IgG-HRP, normalized A450; x axis printed as [Recombinant FRa] (M) with log10 values. As for the experimental part:
as §4
Sandwich ELISA assays were performed using 96-well high-binding ELISA plates (Corning Inc., New York, NY, USA, Cat #3590). Plates were coated using 100 μL/well of recombinant human FRα protein (Sino Biological cat #11241-H08H); recombinant cynomolgus FRα protein (Sino Biological cat #90950-C08H); recombinant rat FRα protein (Sino Biological cat #81073-R08H) or recombinant mouse FRα protein (Sino Biological cat #50573-M08H) in PBS (pH 7.4) at 2 μg/mL and incubated overnight at 4° C. After 2 washes with PBS-T (PBS+0.05% Tween-20), the plates were blocked with 200 μL/well of incubation buffer (PBS-T+0.1% BSA) for 1 h at room temperature. The plates were washed 4 times with PBS-T, and 100 μL of a threefold dilution series of tested compound (antibody or antibody-drug conjugate) was added. Then, the plates were incubated for 2 h at room temperature in the dark. After 5 washes with PBS-T, plates were incubated 1 h at room temperature with 100 μL/well of a goat anti-human IgG (H+L) HRP conjugated antibody (Jackson Immunoresearch cat #109-035-088), previously diluted 1:250000 in incubation buffer.
For B2, the “EC50 (read off the curve)” value is approximately 0.1 nM.
As to B3, the “EC50 (read off the curve)” value was approximately 0.1 nM.
On the same count and under the same terms, next, B4: approximately 0.1 nM; B1: approximately 0.1 nM; B5: approximately 0.2 nM.
The same measure, in the same setting: next, B6: approximately 0.3 nM.
